{"source": "patent US7125850B2", "about": "“Methods of identifying inhibitors of GADD45 polypeptide activity, and inhibitors of such activity” (The United States of America as represented by the …, priority 1999, dated 2006)", "molecules": {"B1": {"name": "GADD45 Δ125–166: truncated rGADD45 containing the first 124 amino acid residues (protein, listed as Homo sapiens)", "chain": "MTLEEFSAGEQKTERMDKVGDALEEVLSKALSQRTITVGVYEAAKLLNVDPDNVVLCLLAADEDDDRDVALQIHFTLIQAFCCENDINILRVSNPGRLAELLLLETDAGPAASEGAEQPPDLHC"}, "B2": {"name": "GADD45 Δ72–166: truncated rGADD45 containing the first 71 amino acid residues (protein, listed as Homo sapiens)", "chain": "MTLEEFSAGEQKTERMDKVGDALEEVLSKALSQRTITVGVYEAAKLLNVDPDNVVLCLLAADEDDDRDVAL"}, "B3": {"name": "rGADD45: full length recombinant human GADD45 polypeptide (SEQ ID NO:2), bacterially expressed, histidine tag removed (protein, listed as Rattus norvegicus)", "chain": "MTLEEFSAAEQKIERMDTVGDALEEVLSKARSQRTITVGVYEAAKLLNVDPDNVVLCLLAADEDDDRDVALQIHFTLIRAFCCENDINILRVSNPGRLAELLLLENDKSPAESGGLAQTPDLHCVLVTNPHSSQWKDPALSQLICFCRESRYMDQWVPVINLPER", "modifications": "rat growth arrest and DNA-damage-inducible protein (rGADD45)"}, "B4": {"name": "NAP-1: negative control protein of similar size and charge as GADD45 (protein, UniProt P55209 2-388, looked up)", "Nucleosome assembly protein …": "ADIDNKEQSELDQDLDDVEEVEEEETGEETKLKARQLTVQMMQNPQILAALQERLDGLVETPTGYIESLPRVVKRRVNALKNLQVKCAQIEAKFYEEVHDLERKYAVLYQPLFDKRFEIINAIYEPTEEECEWKPDEEDEISEELKEKAKIEDEKKDEEKEDPKGIPEFWLTVFKNVDLLSDMVQEHDEPILKHLKDIKVKFSDAGQPMSFVLEFHFEPNEYFTNEVLTKTYRMRSEPDDSDPFSFDGPEIMGCTGCQIDWKKGKNVTLKTIKKKQKHKGRGTVRTVTKTVSNDSFFNFFAPPEVPESGDLDDDAEAILAADFEIGHFLRERIIPRSVLYFTGEAIEDDDDDYDEEGEEADEEGEEEGDEENDPDYDPKKDQNPAEC"}}, "key": {"[1]": {"target": "T1, cellular Cdc2 (Homo sapiens, UniProt P06493)", "T1 construct": "GST-GADD45 fusion protein were incubated with one mg of RKO cellular protein; endogenous in cells; host or cells: RKO (human colon carcinoma)", "T1 sequence (P06493 whole entry, the tested form may be a part)": "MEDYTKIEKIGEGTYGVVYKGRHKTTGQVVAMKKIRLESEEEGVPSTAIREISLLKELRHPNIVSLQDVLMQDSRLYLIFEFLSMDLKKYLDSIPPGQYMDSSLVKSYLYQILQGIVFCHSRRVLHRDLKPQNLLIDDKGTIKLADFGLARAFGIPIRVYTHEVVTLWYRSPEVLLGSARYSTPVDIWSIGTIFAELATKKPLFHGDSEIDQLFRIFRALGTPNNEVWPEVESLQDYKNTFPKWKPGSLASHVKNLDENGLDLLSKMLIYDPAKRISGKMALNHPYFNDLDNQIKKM", "assay": "GST pull-down from RKO cell lysate, immunoblot for Cdc2", "type": "binding", "conditions": "100 ng protein, 1 mg RKO cellular protein", "excerpt": "For these experiments, a recombinant glutathione-S-transferase (GST)/GADD45 fusion protein was constructed. The GADD45 insert was PCR amplified from pHul45B2 using the following primers: (SEQ ID NO:3) 5′[…] 3′ and (SEQ ID NO:4) 5′[…] 3′. Products were cloned into a pcrII vector using the TA cloning kit (Invitrogen, San Diego, Calif.). A representative clone was confirmed by sequencing. The selected insert was removed by XhoI and NotI digestion, gel purified using the Wizard DNA Purification Kit (Promega, Madison, Wis.), and ligated into the XhoI/ NotI digested pGEX4T vector (Pharmacia, Piscataway, N.J.). GST-GADD45 fusion protein induction was prepared from freshly transformed BL21 bacterial cells (Novagen). 150 ml of overnight culture was diluted into 1L of LB with ampicillin and grown at 37° C. to late growth phase (OD600 was approximately 0.8). […]\nTo detect binding of cellular Cdc2 to GST-tagged GADD45, 100 ng of GST or GST-GADD45 fusion protein were incubated with one mg of RKO cellular protein for 4 hr at […]. […] Antibody was detected by a chemiluminescence system in accordance with the instructions of the manufacturer (Amersham, Buckinghamshire, England)\nGST-GADD45 fusion protein or GST alone, which were linked to Sepharose beads, were incubated with cellular lysates, isolated, and analyzed by immunoblotting, as described above."}, "[2]": {"target": "T2, Cdc2/Cyclin B1 complexes (Homo sapiens, UniProt P06493)", "T2 construct": "purchased Upstate Biotechnology, Lake Placid, N.Y", "T2 sequence (P06493 whole entry, species assumed, one chain of several)": "as the sequence (P06493 whole entry, the tested form may be a part) above", "assay": "ELISA binding of rGADD45 proteins to purified Cdc2/Cyclin B1", "conditions": "40 ng protein; for binding to Cdc2/Cyclin B1 in ELISA: 100 ng complex coated", "description": "Immulon II immunoabsorption plates (Dynatech) were coated with 100 ng of Cdc2/Cyclin B1 complexes (Upstate Biotechnology, Lake Placid, N.Y.) in PBS and incubated overnight at 4° C. After rinsing with PBST (PBS with 0.05% Tween-20) and blocking in 5% nonfat milk in PBST, 40 ng of either full length or truncated (both deletion constructs, as described above) rGADD45 protein were added. Following incubation for one hour at room temperature, the plates were washed and an anti-GADD45 antibody (Zymed, San Francisco, Calif.) was added at a 1:1000 dilution in PBST with 0.5% milk (PBSTM). After 1 hr at 25° C., the plates were washed, and HRP-anti-rabbit antibody diluted at 1:1000 in PBS™ was added before final washes and development using the 1-step TMB Solution (Pierce, Rockford, Ill.). Development was halted by the addition of 50 μl of 1M H2SO4, and optical density was measured using a platereader."}, "[3]": {"target": "T3, Cdc2/Cyclin B1 complex (Homo sapiens, UniProt P06493)", "assay": "Histone H1 kinase assay with purified Cdc2-Cyclin B1 complexes", "type": "biochemical", "parameters": "purchased Upstate Biotechnology, Lake Placid, N.Y", "conditions": "for inhibition of histone H1 kinase activity of purified Cdc2/Cyclin B1 complex: 100 ng complex, varying amounts of protein up to 500 ng", "description": "In one experiment, 100 ng purified Cdc2-cyclin B1 complexes (Upstate Biotechnology, Lake Placid, N.Y.) were incubated with varying amounts of full length rGADD45 or negative control (NAP 1, Tjandra (1998) Curr. Biol. 8:991–1000; Fujii-Nakata (1992) J. Biol. Chem. 267:20980–20986) polypeptides. For full length rGADD45: 0, 10, 20, 50, 100, 200, and 500 ng were used. For the control (NAP1): 0, 100, 200, and 500 ng were used.\nHistone H1 kinase assays were then performed. Briefly, purified Cdc2-Cyclin B1 complexes (Upstate Biotechnology, Lake Placid, N.Y.) were incubated with the indicated amounts of rGADD45 or NAP1 proteins for 5 minutes. Histone H1 kinase assays were then performed in the presence of […] of histone H1 (Upstate, Lake Placid, N.Y.), 15 mM MgCl2, 7 mM β-glycerol phosphate, 1.5 mM EGTA, 0.25 mM sodium orthvanadate, 0.25 mM DTT and […] of [g-32P]ATP in 25 μl. After 15 min at 37° C., the reactions were mixed with an equal amount of standard 2× SDS protein denaturation loading buffer, size-separated on a 12% SDS-PAGE gel, and analyzed by autoradiography.\nrGADD45 proteins were prepared as described by Carrier (1994) supra. The rGADD45 proteins that were manufactured included, in addition to the full-length polypeptide, truncated forms containing the first 124 amino acid residues (designated “GADD45 Δ125–166”) or the first 71 amino acid residues (designated “GADD45 Δ72–166”) (see sequence and residue notation of SEQ ID NO:2).\nFor the histone assays comparing the inhibitory activity of full length and truncated GADD45 constructs, instead of loading samples onto the gel for electrophoretic analysis, […] aliquots were spotted on phosphocellulose paper and then washed three times with 0.75% phosphoric acid. After an acetone rinse, the radioactivity was measured by scintillation counting. The results are the average of three separate experiments."}, "[4]": {"target": "Cdk2/Cyclin E (Homo sapiens, UniProt P24941)", "assay": "Cdk2/Cyclin E histone H1 kinase assay", "type": "biochemical", "conditions": "up to 3600 ng of full length rGADD45"}, "[5]": {"target": "T3, Cdc2/Cyclin B1 complex", "assay": "Histone H1 kinase assay with Cdc2/cyclin B1 complex immunoprecipitated from RKO cell lysate", "type": "biochemical", "parameters": "One mg of cellular protein was immunoprecipitated with anti-Cyclin B1 antibody and protein A agarose beads; endogenous in cells; host or cells: RKO (human colon carcinoma)", "conditions": "RKO lysate immunoprecipitate", "description": "A monoclonal antibody against cyclin B1 was next used to immunoprecipitate Cdc2/cyclin B1 complex from a lysate of human cells. Antibodies against human Cdc2, c-Myc, and NAP-1 were obtained from Santa Cruz Biotechnology, Santa Cruz, Calif. […] The human colon carcinoma line RKO was grown in modified Ham's F12 medium supplemented with 10% fetal bovine serum.\nFor immunoprecipitation, exponentially growing RKO cells were lysed on ice for 30 min in lysis buffer consisting of 50 mM Tris-HCl (pH 7.5), 120 mM NaCl, 1% NP-40, […], […] and […] of phenylmethylsulfony fluoride. One mg of cellular protein was immunoprecipitated with anti-Cyclin B1 antibody and protein A agarose beads for 4 hr at 4° C. The immunoprecipitates were washed three times with lysis buffer and then loaded onto a SDS-PAGE gel for immunoblot analysis. The presence of Cdc2/Cyclin B1 was confirmed by immunoblotting.\nIn contrast, rGADD45 had no effect on Cdk2/Cyclin E histone H1 kinase activity. […]"}, "[6]": {"target": "T3, Cdc2/Cyclin B1 complex", "assay": "Wash off assay: dissociation of immunoprecipitated Cdc2/Cyclin B1 complexes", "type": "biochemical", "parameters": "One mg of cellular protein was immunoprecipitated with anti-Cyclin B1 antibody and protein A agarose beads; endogenous in cells; host or cells: RKO (human colon carcinoma)", "conditions": "0-500 ng protein, 15 min at 25 C", "description": "Since GADD45 inhibited Cdc2/Cyclin B1 activity, but only associated with Cdc2, the possibility was considered that GADD45 acts by dissociating this complex. To test this, anti-Cyclin B1 antibody was used to precipitate cellular Cdc2/cyclin B1 complexes (as above). A “wash off assay” was then carried out in the presence of GADD45. Briefly, RKO cellular protein was immunoprecipitated with anti-Cyclin B1 antibody. The immunoprecipitates were washed 3 times with lysis buffer and twice with 10 mM Tris-HCl (pH 7.5), 10 mM Mg Cl2. Samples were then suspended in […] of 10 mM Tris-HCl (pH 7.5), 10 mM MgCl2. Various amounts of rGADD45 (0, 50, 100, 200, 500 ng) or NAP1 (0, 200, 500 ng) was added to the Cdc2/Cyclin B1 immunocomplexes and incubated for 15 min at 25° C. Following incubation, immunoprecipitates were washed twice with lysis buffer, loaded onto SDS-PAGE gel for electrophoresis, and the membrane was immunoblotted with monoclonal Cdc2 antibody for the detection of Cdc2 protein. Prior to the final immunoprecipitation, an aliquot of the solution was analyzed by immunoblotting with an anti-Cyclin B1 antibody to confirm uniform loading. […] To confirm uniform levels of Cyclin B1, the amount of Cyclin B1 was measured by immunoblotting."}}, "data": [{"molecule": "GST: glutathione-S-transferase alone, linked to Sepharose beads, control [reference compound]", "values": [{"measurement": "association with cellular Cdc2", "setting": "[1]", "value": "no Cdc2 was detected"}]}, {"molecule": "B1", "values": [{"measurement": "binding relative to full-length rGADD45 protein", "setting": "[2]", "value": 77, "unit": "%"}, {"measurement": "binding to Cdc2/Cyclin B1 in ELISA", "setting": "[2]", "value": "significant binding over background level"}, {"measurement": "inhibition of histone H1 kinase activity of purified Cdc2/Cyclin B1 complex", "setting": "[3]", "value": "able to inhibit"}]}, {"molecule": "B2", "values": [{"measurement": "binding to Cdc2/Cyclin B1 in ELISA", "setting": "[2]", "value": "No appreciable binding"}, {"measurement": "inhibition of histone H1 kinase activity of purified Cdc2/Cyclin B1 complex", "setting": "[3]", "value": "failed to inhibit"}]}, {"molecule": "B3", "values": [{"measurement": "effect on Cdk2/Cyclin E histone H1 kinase activity", "setting": "[4]", "value": "no effect"}, {"measurement": "binding to Cdc2/Cyclin B1 in ELISA", "setting": "[2]", "value": "significant binding over background level"}, {"measurement": "Cdc2/Cyclin B1 histone kinase activity, % of control", "setting": "[3]; 50 ng protein", "value": "less than 40%"}, {"measurement": "inhibition of histone H1 kinase activity of purified Cdc2/Cyclin B1 complex", "setting": "[3]", "value": "strongly inhibited"}, {"measurement": "inhibition of histone phosphorylation by Cdc2/Cyclin B1", "setting": "[3]; larger amounts than 50 ng", "value": "strong inhibition"}, {"measurement": "inhibition of enzymatic activity of isolated (immunoprecipitated) Cdc2/cyclin B1 complex", "setting": "[5]", "value": "progressive inhibition"}, {"measurement": "Cdc2 level remaining in Cyclin B1 immune complexes (dissociation of complex)", "setting": "[6]", "value": "did reduce the Cdc2 level"}]}, {"molecule": "B4", "values": [{"measurement": "inhibition of histone H1 kinase activity of purified Cdc2/Cyclin B1 complex", "setting": "[3]", "value": "no appreciable effect"}, {"measurement": "Cdc2 level remaining in Cyclin B1 immune complexes (dissociation of complex)", "setting": "[6]", "value": "no effect"}]}]}
